The values below come from the supplement of paper PMC11246515.

The data set is described as follows: total protein half-life in vivo (active degradation + dilution); higher = more stable protein.
Setting [1] is: E. coli NCM3722 delta-clpP delta-lon delta-hslV, growth: N-lim chemostat, doubling time 6 h.
Where [2] appears, read: E. coli NCM3722 delta-clpP, growth: N-lim chemostat, doubling time 6 h.
The mark [3] stands for this setting: E. coli NCM3722 delta-hslV, growth: N-lim chemostat, doubling time 6 h.
[4] abbreviates: E. coli NCM3722 delta-lon, growth: N-lim chemostat, doubling time 6 h.
Setting [5] is: E. coli NCM3722 delta-smpB, growth: N-lim chemostat, doubling time 6 h.
[6] abbreviates: wild type E. coli NCM3722, growth: C-lim chemostat, doubling time 3 h.
Where [7] appears, read: wild type E. coli NCM3722, growth: C-lim chemostat, doubling time 12 h.
The mark [8] stands for this setting: wild type E. coli NCM3722, growth: N-lim chemostat, doubling time 6 h.
[9] abbreviates: wild type E. coli NCM3722, growth: N-lim chemostat, doubling time 12 h.
[10] abbreviates: wild type E. coli NCM3722, growth: P-lim chemostat, doubling time 6 h.
The mark [11] stands for this setting: wild type E. coli NCM3722, growth: P-lim chemostat, doubling time 12 h.
Setting [12] is: wild type E. coli NCM3722, growth: C-lim chemostat, doubling time 6 h.

± gives the standard deviation of the averaged measurements.

On to “MELLSEYGLFLAKIVTVVLAIAAIAAIIVNVAQRNKRQRGELRVNNLSEQYKEMKEELAAALMDSHQQKQWHKAQKKKHKQEAKAAKAKAKLGEVATDSKPRVWVLDFKGSMDAHEVNSLREEITAVLAAFKPQDQVVLRLESPGGMVHGYGLAASQLQRLRDKNIPLTVTVDKVAASGGYMMACVADKIVSAPFAIVGSIGVVAQMPNFNRFLKSKDIDIELHTAGQYKRTLTLLGENTEEGREKFREELNETHQLFKDFVKRMRPSLDIEQVATGEHWYGQQAVEKGLVDEINTSDEVILSLMEGREVVNVRYMQRKRLIDRFTGSAAESADRLLLRWWQRGQKPLM [P0AG14]”, for which the “total protein half-life in vivo” value came to 6.52 ± 0.91 h under setting [1]; 6.18 ± 0.14 h under setting [2]; 5.91 ± 0.15 h under setting [3]; 6.12 ± 0.27 h under setting [4]; 6.07 ± 0.87 h under setting [5]; 3.11 ± 0.099 h under setting [6]. Besides, the “total protein half-life in vivo” value was 11.3 ± 0.26 h under setting [7]; 6.076 ± 0.021 h under setting [8]; 14.1 ± 1.8 h under setting [9]; 5.6 ± 0.61 h under setting [10]; 11.4 ± 1.4 h under setting [11].
On to “MKNKADNKKRNFLTHSEIESLLKAANTGPHAARNYCLTLLCFIHGFRASEICRLRISDIDLKAKCIYIHRLKKGFSTTHPLLNKEVQALKNWLSIRTSYPHAESEWVFLSRKGNPLSRQQFYHIISTSGGNAGLSLEIHPHMLRHSCGFALANMGIDTRLIQDYLGHRNIRHTVWYTASNAGRFYGIWDRARGRQRHAVL [P0ADH5]”, for which the “total protein half-life in vivo” value is 5.33 ± 0.87 h under setting [1], 1.9 h under setting [4], 0.718 ± 0.15 h under setting [5] and 0.988 h under setting [9].
As to “MKSRAAVAFAPGKPLEIVEIDVAPPKKGEVLIKVTHTGVCHTDAFTLSGDDPEGVFPVVLGHEGAGVVVEVGEGVTSVKPGDHVIPLYTAECGECEFCRSGKTNLCVAVRETQGKGLMPDGTTRFSYNGQPLYHYMGCSTFSEYTVVAEVSLAKINPEANHEHVCLLGCGVTTGIGAVHNTAKVQPGDSVAVFGLGAIGLAVVQGARQAKAGRIIAIDTNPKKFDLARRFGATDCINPNDYDKPIKDVLLDINKWGIDHTFECIGNVNVMRAALESAHRGWGQSVIIGVAVAGQEISTRPFQLVTGRVWKGSAFGGVKGRSQLPGMVEDAMKGDIDLEPFVTHTMSLDEINDAFDLMHEGKSIRTVIRY”, the “total protein half-life in vivo” value by setting is: under setting [1], 5.33 ± 0.98 h; under setting [2], 4.73 ± 0.68 h; under setting [3], 4.43 ± 0.28 h; under setting [4], 4.95 ± 0.45 h; under setting [5], 4.24 ± 0.45 h; under setting [6], 2.68 ± 0.26 h. Besides, the “total protein half-life in vivo” value was found to be 5.87 ± 0.69 h under setting [12]; 10.1 ± 1 h under setting [7]; 4.1 ± 0.47 h under setting [8]; 6.819 ± 0.021 h under setting [9]; 5.6 ± 0.19 h under setting [10]; 11.4 ± 0.52 h under setting [11].
On to “MLRHITFTVFITTSMNTLATGMVPETSVLLVDEKRGEASINIKNTDDHPSLLYTTIVDLPESNKSIRLIPTQPVIRVEAGQVQQVRFLLQATVPLQSEELKRVTFEGIPPKDDKSSRVTVSIRQDLPVLIHPASLPEERETWKFLEWRKNGDQIEISNPSNYVVRMTLQFKTLPSGKTGAINKTYFLPHTSTTTALTNATDTKVEFYPASRYGYRGNKYVTDLK”, for which the “total protein half-life in vivo” value under setting [10] came out at 4.81 h.
On to “MLLAGSSLLTLLDDIATLLDDISVMGKLAAKKTAGVLGDDLSLNAQQVSGVRANRELPVVWGVAKGSLINKVILVPLALIISAFIPWAITPLLMIGGAFLCFEGVEKVLHMLEARKHKEDPAQSQQRLEKLAAQDPLKFEKDKIKGAIRTDFILSAEIVAITLGIVAEAPLLNQVLVLSGIALVVTVGVYGLVGVIVKIDDLGYWLAEKSSALMQALGKGLLIIAPWLMKALSIVGTLAMFLVGGGIVVHGIAPLHHAIEHFAGQQSAVVAMILPTVLNLILGFIIGGIVVLGVKAVEKMRGQAH”, for which the “total protein half-life in vivo” value was 5.24 ± 0.46 h under setting [1]; 5.53 ± 0.22 h under setting [3]; 5.52 ± 0.47 h under setting [4]; 5.54 ± 0.83 h under setting [5]; 3.16 ± 0.37 h under setting [6]; 5.92 ± 1.3 h under setting [12]. Also, the “total protein half-life in vivo” value amounted to 10.3 ± 1.3 h under setting [7]; 5.79 ± 0.4 h under setting [8]; 12.22 ± 0.064 h under setting [9]; 5.22 ± 0.29 h under setting [10]; 10.4 ± 0.92 h under setting [11].
With “MLIIKRSVAIIAILFSPLSTASNLTSQLHNFFSAQLAGVSDEVRVSIRTAPNLLPPCEQPLLSMSNNSRLWGNVNVLARCGNDKRYLQVNVQATGNYVVAAMPIARGGKLEAGNVKLKRGRLDTLPPRTVLDINQLVDAISLRDLSPDQPIQLTQFRQAWRVKAGQRVNVIASGDGFSANAEGQALNNAAVAQNARVRMVSGQVVSGVVDADGNILINL”, the “total protein half-life in vivo” value under setting [6] was 0.905 ± 0.37 h and the “total protein half-life in vivo” value under setting [7] stood at 2.23 h.
With “MAQRVQLTATVSENQLGQRLDQALAEMFPDYSRSRIKEWILDQRVLVNGKVCDKPKEKVLGGEQVAINAEIEEEARFEPQDIPLDIVYEDEDIIIINKPRDLVVHPGAGNPDGTVLNALLHYYPPIADVPRAGIVHRLDKDTTGLMVVAKTVPAQTRLVESLQRREITREYEAVAIGHMTAGGTVDEPISRHPTKRTHMAVHPMGKPAVTHYRIMEHFRVHTRLRLRLETGRTHQIRVHMAHITHPLVGDPVYGGRPRPPKGASEAFISTLRKFDRQALHATMLRLYHPISGIEMEWHAPIPQDMVELIEVMRADFEEHKDEVDWL”, the “total protein half-life in vivo” value turned out to be 5.82 ± 0.6 h under setting [1]; 5.7 ± 0.94 h under setting [2]; 5.65 ± 0.66 h under setting [3]; 5.51 ± 0.46 h under setting [4]; 4.66 ± 0.21 h under setting [5]; 3.66 ± 0.34 h under setting [6]. In addition, the “total protein half-life in vivo” value was 5.83 ± 0.07 h under setting [12]; 9.95 ± 1.4 h under setting [7]; 5.63 ± 0.2 h under setting [8]; 8.47 ± 0.64 h under setting [9]; 5.72 ± 0.12 h under setting [10]; 11.2 ± 0.25 h under setting [11].
